# Assay results from US5223421A, “Identification of methionine Nα-acetyltransferase” (The General Hospital Corporation, priority 1990, dated 1993).
# What was measured:
# [1] = target: T1, AAA1 N^α -acetyltransferase (N^α -AT) (Saccharomyces cerevisiae, UniProt P07347+P12945); test: Relative activity of N^α -AT for N^α -acetylation of synthetic peptides; format: biochemical
# T1 sequence (P12945 2-854 limits assumed): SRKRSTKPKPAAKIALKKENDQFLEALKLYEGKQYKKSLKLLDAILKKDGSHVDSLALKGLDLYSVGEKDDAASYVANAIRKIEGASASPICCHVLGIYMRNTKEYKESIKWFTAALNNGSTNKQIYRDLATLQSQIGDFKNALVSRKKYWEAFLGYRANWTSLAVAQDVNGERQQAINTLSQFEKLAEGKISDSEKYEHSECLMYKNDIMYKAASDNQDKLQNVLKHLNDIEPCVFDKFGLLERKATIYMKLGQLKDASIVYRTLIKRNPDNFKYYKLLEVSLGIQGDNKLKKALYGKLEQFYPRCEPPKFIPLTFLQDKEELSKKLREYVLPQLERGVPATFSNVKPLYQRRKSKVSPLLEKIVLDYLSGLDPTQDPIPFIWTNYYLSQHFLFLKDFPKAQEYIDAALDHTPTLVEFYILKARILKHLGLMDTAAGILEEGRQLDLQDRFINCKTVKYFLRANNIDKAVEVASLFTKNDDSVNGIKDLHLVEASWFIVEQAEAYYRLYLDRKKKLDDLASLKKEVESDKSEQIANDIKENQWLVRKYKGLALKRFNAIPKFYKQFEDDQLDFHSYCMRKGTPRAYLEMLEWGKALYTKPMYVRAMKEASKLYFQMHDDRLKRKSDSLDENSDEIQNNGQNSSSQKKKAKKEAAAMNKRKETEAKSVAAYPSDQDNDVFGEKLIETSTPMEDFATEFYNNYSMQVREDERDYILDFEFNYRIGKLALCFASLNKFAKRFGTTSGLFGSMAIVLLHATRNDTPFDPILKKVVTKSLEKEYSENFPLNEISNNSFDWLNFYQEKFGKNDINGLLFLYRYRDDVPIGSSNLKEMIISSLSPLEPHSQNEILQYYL
# T1 sequence (P07347 1-238): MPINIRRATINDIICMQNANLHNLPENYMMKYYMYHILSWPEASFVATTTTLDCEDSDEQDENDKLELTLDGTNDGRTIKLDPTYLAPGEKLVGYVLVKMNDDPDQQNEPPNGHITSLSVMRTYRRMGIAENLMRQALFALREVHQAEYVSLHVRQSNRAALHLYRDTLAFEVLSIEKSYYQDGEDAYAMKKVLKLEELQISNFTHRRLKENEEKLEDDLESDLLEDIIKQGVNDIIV
# Procedure: (§1) N^α -acetylt[…] was determined as previously described [Lee et al., J. Biol. Chem. 263:14948-14955 (1988)]. Aliquots of the lysate or chromatographic fractions were added to 1.5 ml Eppendorf tubes containing a reaction mixture of 50 mM HEPES, pH 7.4, 150 mM KCl, 1 mM DTT, 25 μM [^3 H] acetyl coenzyme A (0.5 μCi) and 50 μM synthetic peptide with an adjusted final volume of 100 μl. The assay mixture was incubated at 30° C. for 30 min. The reaction was stopped by adding 17 μl of 0.5M acetic acid and chilled in an ice bath. The reaction samples were filtered through SP membrane discs (Cuno) (previously pre-swollen in 0.5M acetic acid), and then washed three times with 1 ml of 0.5M acetic acid on a Millipore 1225 sampling manifold. The partially dried membranes were placed in scintillation cocktail and counted with a Beckman LS 3801 scintillation counter. One unit of activity was defined as the amount of enzyme able to transfer 1 pmol of [^3 H] acetyl group from [^3 H] acetyl coenzyme A to synthetic peptide per min under standard enzyme assay conditions defined above.
# (§2) In order to compare the relative specificity and activity of the methionine N^α -acetylt[…] (M-N^α -AT) of the present invention with the specificity and activity of the AAA1 N^α -acetyltransferase (N^α -AT) of Lee, F.-J. S., et al., J. Bacteriol. 171, (1989), U.S. Patent Application of John A. Smith, and Fang-Jen S. Lee, filed Oct. 25, 1989, entitled "ISOLATION OF STRAINS OF SAC[…] ALTERED N^α -ACETYLT[…]" (which references have been incorporated herein by reference) synthetic peptides were prepared. These peptides were assessed for their ability to serve as substrates for the two enzymes. In Table 6, the effect of the amino terminal amino acid on activity is investigated; in Table 7, the effect of the penultimate amino terminal amino acid on activity is investigated.
# [2] = tested on: methionine N^α -acetyltransferase (M-N^α -AT); test: Relative activity of M-N^α -AT for N^α -acetylation of synthetic peptides; format: biochemical, Saccharomyces cerevisiae; parameters: tested at 50 µM; conditions: Table 7, influence of the penultimate amino terminal residue
# Procedure: as §1, §2
# [3] = Table 6, influence of the amino terminal residue
# [4] = Table 7, influence of the penultimate amino terminal residue
Substance,"Activity (%) (mean activity ± S.D.) N^a -AT [1, 3]","Activity (%) (mean activity ± S.D.) N^a -AT [1, 4]",Activity (%) (mean activity ± S.D.) M-N^a -AT [2]
SIPETQKGVIFYESHGKLEYKDIP (SIPETQKGVIFYESHGKLEYKDIP) [Alcohol dehydrogenase (1-24) (Yeast)],102 ± 5,102 ± 5,0
SYSMEHFRWGKPVGKKRRPVKVYP,100 ± 5,100 ± 5,0
